These are literature values, as cited in publication PMC3486867.

By pKa is commonly meant the negative logarithm of the acid dissociation constant.

This data set has as its target Asp408 (UniProt position 408, GLLVDDAIVVV). Kind of data set: chemical modification (inferred from the title of ref 54: site-directed mutagenesis and carbodiimide labeling).

As for “Multidrug transporter AcrB (not stated (Escherichia coli inferred))”, the pKa is given as 7.4.
